The values that follow are results of earlier work, collected in PMC3865722.

Read-outs that look alike come from different tables or passages of the source.

For data set [1], the target named is SRSF1 (Homo sapiens) (UniProt Q07955).
Data set [2] has the same target. The source holds these as a separate data set.

SRSF1 (Homo sapiens), sequence (Q07955 2-248): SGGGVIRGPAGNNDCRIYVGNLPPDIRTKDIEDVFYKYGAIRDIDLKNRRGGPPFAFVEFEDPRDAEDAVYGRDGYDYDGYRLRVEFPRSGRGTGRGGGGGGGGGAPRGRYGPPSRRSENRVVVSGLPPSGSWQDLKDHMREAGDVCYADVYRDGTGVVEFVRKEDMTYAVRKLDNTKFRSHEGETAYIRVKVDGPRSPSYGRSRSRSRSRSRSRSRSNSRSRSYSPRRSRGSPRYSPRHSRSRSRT
CLK1, sequence (P49759 whole entry): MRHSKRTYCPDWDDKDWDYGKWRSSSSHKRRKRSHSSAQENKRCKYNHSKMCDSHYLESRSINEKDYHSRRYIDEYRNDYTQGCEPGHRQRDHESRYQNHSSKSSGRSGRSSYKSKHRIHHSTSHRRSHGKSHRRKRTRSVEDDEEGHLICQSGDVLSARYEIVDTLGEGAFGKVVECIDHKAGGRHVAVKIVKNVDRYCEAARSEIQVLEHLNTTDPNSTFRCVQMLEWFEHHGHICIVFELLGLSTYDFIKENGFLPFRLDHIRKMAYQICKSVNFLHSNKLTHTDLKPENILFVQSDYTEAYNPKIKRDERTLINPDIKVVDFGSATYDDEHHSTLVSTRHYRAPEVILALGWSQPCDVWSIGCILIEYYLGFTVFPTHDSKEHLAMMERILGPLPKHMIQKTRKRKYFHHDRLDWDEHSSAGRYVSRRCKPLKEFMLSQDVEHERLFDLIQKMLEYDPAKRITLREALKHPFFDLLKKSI

On to SRPK1 (from UniProt Q96SB4), for which, in the data set with SRSF1 (Homo sapiens) [1], the Kd (in general, the free concentration of one partner at which half of the binding sites on the other are occupied at equilibrium, for simple one-to-one binding) is less than 100 nM.
For CLK1 (from UniProt P49759), in the data set with SRSF1 (Homo sapiens) [2], the equilibrium dissociation constant (Kd) was less than 100 nM.
